Residue numbers refer to the chain shown, from its start. Values belong to the binder of their own block, whether it stands above or below them.
Columns and labels:
[1] = molecular target: human-mouse chimeric EL (construct not specified); assay: cell-based or functional assay
[2] = molecular target: human-mouse chimeric EL (construct not specified); assay: Biacore; EL captured by anti-C2-tag Ab; bivalent fit
[3] = molecular target: cynomolgus monkey EL (cynomolgus monkey); assay: cell-based or functional assay
[4] = molecular target: cynomolgus monkey EL (cynomolgus monkey); assay: Biacore; EL captured by anti-C2-tag Ab; bivalent fit

B1: h12B10-S1 (antibody, V domains shown)
VH: EVQLVESGGGLVKPGGSLRLSCAASGFSLSTSGMGVGWVRQAPGKGLEWLAHIWWNDEKYYNPSLKSRFTISRDDSKNTLYLQMNSLKTEDTAVYYCARDHLAYYFDVWGQGTLVTVSS
VL: DIQMTQSPSSLSASVGDRVTITCKASQDINKYIAWYQQKPGKAPKLLMAYPFTLQPGVPSRFSGSGSGTDFTLTISSLQPEDFATYYCLQYDNLLWTFGQGTKVEIK
Neutralizing activity IC50 [1]: 6 nM | Kd [2]: 1.9 nM | koff [2]: 0.00035 s⁻¹ | kon [2]: 190000 M⁻¹ s⁻¹

B2: h12B10-S2 (antibody, V domains shown)
VH: B1 VH with Y104F, V108L
VL: B1 VL
Neutralizing activity IC50 [1]: 5.4 nM | Kd [2]: 0.14 nM | koff [2]: 3.3e-05 s⁻¹ | kon [2]: 240000 M⁻¹ s⁻¹

B3: h12B10-S4 (antibody, V domains shown)
VH: B1 VH with T31S, A103V, Y104F, Y105F, V108L
VL: B1 VL
Neutralizing activity IC50 [1]: 6.2 nM

B4: h12B10-S3 (antibody, V domains shown)
VH: B1 VH with Y104F, Y105F, V108L
VL: B1 VL
Neutralizing activity IC50 [1]: 4.9 nM | Kd [2]: 0.11 nM | koff [2]: 1.7e-05 s⁻¹ | kon [2]: 150000 M⁻¹ s⁻¹

B12: h13B3-S1 (antibody, V domains shown)
VH: QVQLVQSGAEVKKPGASVKVSCKASGYTFTEYTMHWVRQAPGQGLEWMGSINPYYGGTSYNEKFKDRVTMTRDTSTSTVYMELSSLRSEDTAVYYCARYGNYVGYFDYWGQGTTVTVSS
VL: EIVLTQSPGTLSLSPGERATLSCRASSSVHYMYWYQQKPGQAPRLLIYYTSNLAPGIPDRFSGSGSGTDFTLTISRLEPEDFAVYYCQQFTSSPYTFGGGTKVEIK
Neutralizing activity IC50 [3]: 2.4 nM | Kd [4]: 5.7 nM | koff [4]: 0.00043 s⁻¹ | kon [4]: 76000 M⁻¹ s⁻¹

B13: h13B3-S4 (antibody, V domains shown)
VH: B12 VH with M70S, T76I, V79A, S85R, E89D, A92V
VL: B12 VL with G9A, D59A, R76S
Neutralizing activity IC50 [3]: 2.9 nM | Kd [4]: 3.5 nM | koff [4]: 0.00038 s⁻¹ | kon [4]: 110000 M⁻¹ s⁻¹

B14: h13B3-S2 (antibody, V domains shown)
VH: B12 VH with M70S, T76I, V79A, S85R, E89D, A92V
VL: B12 VL
Neutralizing activity IC50 [3]: 3.6 nM | Kd [4]: 3.1 nM | koff [4]: 0.00014 s⁻¹ | kon [4]: 45000 M⁻¹ s⁻¹

B15: h13B3-S3 (antibody, V domains shown)
VH: B12 VH
VL: B12 VL with G9A, D59A, R76S
Neutralizing activity IC50 [3]: 4.1 nM | Kd [4]: 13 nM | koff [4]: 0.00085 s⁻¹ | kon [4]: 66000 M⁻¹ s⁻¹

Continued, values first:

Neutralizing activity IC50 [3]: 26 nM | Kd [4]: 36 nM | koff [4]: 0.0036 s⁻¹ | kon [4]: 100000 M⁻¹ s⁻¹
B5: h23H8-S1 (antibody, V domains shown)
VH: QVQLVQSGAEVKKPGASVKVSCKASGYTFTDNTIHWVRQAPGQGLEWMGHINPYYGGTNNNEKFKDRVTMTRDTSISTAYMELSRLRSDDTAVYYCARKGIYYSSPFDYWGQGTTVTVSS
VL: DIQMTQSPSSLSASVGDRVTITCRASQDINNYLNWYQQKPGKAPKLLIYYTSKLHSGVPSRFSGSGSGTDFTLTISSLQPEDFATYYCQQGNTLPFTFGQGTKLEIK

Neutralizing activity IC50 [3]: 1.8 nM | Kd [4]: 0.41 nM | koff [4]: 0.00015 s⁻¹ | kon [4]: 370000 M⁻¹ s⁻¹
B6: h23H8-S3 (antibody, V domains shown)
VH: B5 VH
VL: B5 VL with Y49S

Neutralizing activity IC50 [3]: 1.7 nM | Kd [4]: 4.3 nM | koff [4]: 0.00099 s⁻¹ | kon [4]: 230000 M⁻¹ s⁻¹
B7: h23H8-S2 (antibody, V domains shown)
VH: B5 VH
VL: B5 VL with Y49S, P80R

Neutralizing activity IC50 [3]: 3.6 nM | Kd [4]: 11 nM | koff [4]: 0.001 s⁻¹ | kon [4]: 94000 M⁻¹ s⁻¹
B8: h16B3-S1 (antibody, V domains shown)
VH: EVQLVESGGGLVQPGGSLRLSCAASGFTFSGYTMSWVRQAPGKGLEWVSEISFARDRAFYPDTVKGRFTISRDNSKNTLYLQMNSLRAEDTAVYYCAKLGGRNHDYWYFDVWGQGTTVTVSS
VL: DIVMTQSPDSLAVSLGERATINCRASESVEYYGTSLMQWYQQKPGQPPKLLIYAASNVESGVPDRFSGSGSGTDFTLTISSLQAEDVAVYYCQQSWKVPFTFGQGTKLEIK

Neutralizing activity IC50 [3]: 1.7 nM | Kd [4]: 2.3 nM | koff [4]: 0.0003 s⁻¹ | kon [4]: 130000 M⁻¹ s⁻¹
B9: h53A11-S1 (antibody, V domains shown)
VH: QVQLVQSGAEVKKPGASVKVSCKASGYTFTDYTMHWVRQAPGQRLEWMGGINPYYGGTTYNEKFKDRVTITRDTSASTAYMELSSLRSEDTAVYYCAKGDYYGGSYNYWGQGTTVTVSS
VL: EIVMTQSLATLSVSPGERATLSCRASQDISNSLHWYQQKPGQAPRLLIKYASQSISGIPARFSGSGSGTEFTLTISSLQSEDFAVYYCQQSNSWPYTFGQGTKLEIK

Neutralizing activity IC50 [3]: 1.8 nM | Kd [4]: 4.3 nM | koff [4]: 0.00065 s⁻¹ | kon [4]: 150000 M⁻¹ s⁻¹
B10: h53A11-S2 (antibody, V domains shown)
VH: B9 VH
VL: B9 VL with K49Y

Neutralizing activity IC50 [3]: 1.2 nM | Kd [4]: 5.8 nM | koff [4]: 0.0007 s⁻¹ | kon [4]: 120000 M⁻¹ s⁻¹
B11: h53A11-S3 (antibody, V domains shown)
VH: B9 VH
VL: B9 VL with L8P
